Assay results: the RNAGym collection of RNA variant scans (doi:10.7554/elife.90254)

B1: OR4K15 (parent)
chain: GUUAACGGUCAUAGGCCAUGGAAACUAGGAGCACCAUUUCGCUGCCAGUGAAGAAAUGAACAAAGAAAAUCUGGGCCAGGCAGGCAUCAAAAGAAAUAGUCUUGCGCUCAACCAGAAAGUCUGUAAUCAUUUUAAGGGUA

Variants of: B1
Assay: self-cleavage, relative activity (ratio to wild type); higher = more cleavage; in vitro, sequencing; the parent is a self-cleaving ribozyme

Variant	self-cleavage
GUUAACGGUCAUAGGCCAUGGAAACUAGGGGCACCAUUUCGCUGCCAGUGAAGAAAUGAACAAAGAAAAUCUGGGCCUGGCAGGCAUCAAAAGAAAUAGUCUUGCGCUCAACCAGAAAGUCUGUAAUCAUUUUAAGGGUA [A30G A78U]	0.41
GUUAACGGUCAUAGGCCAUGGAAACUAGGAGCACCAUUUCGCUGCCAGUGAAGAAGUGAACAAAGAAAAUCUGGGCCAGGCAGGCAUCAAAAGAAAUAGUCUUGCGCUCAACCAGAAAGUCUGUGAUCAUUUUAAGGGUA [A56G A125G]	0.51
GUUAACGGUCAUAGGCCAUGGAAACUAGGAGCACCAUUUCGCUGCCAGUGAAGAAAUGAACAAAGAAAAUCUGGGCCAGGCAGGCAUCAGAAGAAAUAGUCUUGCGCUCAACCAGAAAGUCUGUAAUCAUUUUAAGGUUA [A90G G138U]	1.3
GUUAACGGUCAUAGGCCAUGGAAGCUAGGAGCACCAUUUCGCUGCCAGUGAAGAAAUGAACAAAGAAAAUCUGGGCCAGGCAGGCAUCAAAGGAAAUAGUCUUGCGCUCAACCAGAAAGUCUGUAAUCAUUUUAAGGGUA [A24G A92G]	1.19
GUUAACGGUCAUAGGCCAUGGAAACUAGGAGCACCAUUUCGCUCCAAGUGAAGAAAUGAACAAAGAAAAUCUGGGCCAGGCAGGCAUCAAAAGAAAUAGUCUUGCGCUCAACCAGAAAGUCUGUAAUCAUUUUAAGGGUA [G44C C46A]	1.19
GUUAACGGUCAUAGGCCAUGGAAACUAGGAGCACCGUUUCGCUGCCAGUGAAGAAAUGAACAAAGAAAAUCUGGGCCAGGCGGGCAUCAAAAGAAAUAGUCUUGCGCUCAACCAGAAAGUCUGUAAUCAUUUUAAGGGUA [A36G A82G]	0.53
GUUAACAGUCAUAGGCCAUGGAAACUAGGAGCACCAUUUCGCUGCCAGUGAAGAAAUGAACAAAGAAAAUCUGGGCCAGGCAGGCAUCAAAAGAAAUAGUCUUGCGCUCAACCUGAAAGUCUGUAAUCAUUUUAAGGGUA [G7A A114U]	0.06
GUUAACGGUCAUAGGCCAUGGAAACUAGGAGCACCAUUUCGCUGCCAGUGAAGAAAUGAACAAAGAAAAUCCGGGCCAGGCAGGCAUCAAAAGAAAUGGUCUUGCGCUCAACCAGAAAGUCUGUAAUCAUUUUAAGGGUA [U72C A98G]	0.03
GUUAACGGUCAUAGGCCAUGGAAACUAGGAGCACCAUUUCGCUGCCAGUGAAGAAAUGAACAAAGAAAAUCUGGGCCAGGCAGGCAUCAAAAGAAAUAGUCUUGCGCUCAACCAGAAAGUCUGUAAUCCCUUUAAGGGUA [A129C U130C]	0.63
GUUAACGGUCAUAGGCCACGGAAACUAGGAGCACCAUUUCGCUGCCAGUGAAGACAUGAACAAAGAAAAUCUGGGCCAGGCAGGCAUCAAAAGAAAUAGUCUUGCGCUCAACCAGAAAGUCUGUAAUCAUUUUAAGGGUA [U19C A55C]	1.89
GUUAACGGUCAUAGGCCAUGGAAACUAGGAGCACCAUCUAGCUGCCAGUGAAGAAAUGAACAAAGAAAAUCUGGGCCAGGCAGGCAUCAAAAGAAAUAGUCUUGCGCUCAACCAGAAAGUCUGUAAUCAUUUUAAGGGUA [U38C C40A]	1.48
GUUAACGGUCAUAGGCCAUGGAAACUAGGAGCACCAUUUCGCUGCUAGUGAAGAAAUGAACUAAGAAAAUCUGGGCCAGGCAGGCAUCAAAAGAAAUAGUCUUGCGCUCAACCAGAAAGUCUGUAAUCAUUUUAAGGGUA [C46U A62U]	1.83
GUUAACGGUCAUAGGCCAUGGAAACUAGGAGCACCAUUCCGCUGCCAGUGACGAAAUGAACAAAGAAAAUCUGGGCCAGGCAGGCAUCAAAAGAAAUAGUCUUGCGCUCAACCAGAAAGUCUGUAAUCAUUUUAAGGGUA [U39C A52C]	1.78
GUUAACGGUCAUAGGCCAUGGAAACUAGGAGCACCAUUUCGCAGCCAGUGAAGAAAUGAACAAAGAAAAUCUGGGCCAGGCAGGCAUCAAAAGAAAUAGUCUUGCGCUCAACCAGAAAGGCUGUAAUCAUUUUAAGGGUA [U43A U120G]	1.16
GUUAACGGUCAUAGGCCAUGGUAACUAGGAGCACCAUUUCGCUGCCAGUGAAGAAAUGAACAAAGAAAAUCUGGGCCAGGCAGGCAUCAAAAGAGAUAGUCUUGCGCUCAACCAGAAAGUCUGUAAUCAUUUUAAGGGUA [A22U A95G]	0.94
GUUAACGGUCAUAGGCCAUGGAAACUAGGAGCACCAUUUCGCUGCCAGUGAAGAAAUGAACAAAGAAAAUCUGGGCCAGGCAGGCAUCAAAAGAAAUAGUCUUGCGCUCAACCAAAAAGUCUGUAAUUAUUUUAAGGGUA [G115A C128U]	0.06
GUUAACGGUCAUAGGCCAUGGAAACUAGGAGCACCAUUUCGCUGCCAGUGAAGAAAUGAACAAAGAAAAUCUGGGCCAGGCAGGCUUCAAAAGAAAUAGUCUUGCGCUCAACCAGAAAGUCUGAAAUCAUUUUAAGGGUA [A86U U124A]	1.02
GUUAACGGUCAUAGGCCAUGGAAACUAGGAGCACCAUUUCGCUGCCGGUGAAGAAAUGAACAAAGAAAAUCUGGGCCAGGCAGGCAUCAAAAGAAAUAGUCUUGCGCUCAACCAGAAAGUCUGUAAUCAUUUUAAGGGCA [A47G U139C]	1.45
GUUAACGGCCAUAGGCCAUGGAAACUAGUAGCACCAUUUCGCUGCCAGUGAAGAAAUGAACAAAGAAAAUCUGGGCCAGGCAGGCAUCAAAAGAAAUAGUCUUGCGCUCAACCAGAAAGUCUGUAAUCAUUUUAAGGGUA [U9C G29U]	2.61
GUUAACGGUCAUAGGCCAUGGAAACUAGGAGCACCAUUUCGCUGCCAGUGAAGAAAUGAACAAAGAAAAUCUGGGCCAGGCAGGCAUCAAAAGAAAAAGUCUUGCGCUCAACCAGAAAGUCUGUAUUCAUUUUAAGGGUA [U97A A126U]	1.01
GUUAACGGUCAUAGGCCAUGGAAACUAGGAGCACCACUUCGCUGCCAGUGAAGAAAUGAACAAAGAAAAUCUGGGCCAGGCAGGCAUCAAAAGAAAUAGUCUAGCGCUCAACCAGAAAGUCUGUAAUCAUUUUAAGGGUA [U37C U103A]	0.5
